Assay results: patent US20120190612A1, “METHODS OF TREATMENT” (CRC FOR ASTHMA AND AIRWAYS LTD., priority 2009, published 2012)
Blank lines part the entries; values can stand above or below the molecule they belong to.

Experiments:
VEGF-D (R&D Systems) = VEGF-D (R&D Systems) (UniProt O43915); test: cell-based or functional assay
[1] = test system: lung adenocarcinoma cells (LNM35 AAV-GFP); test: Mouse ear tumour plug model of tumour-induced lymphangiogenesis; format: in vivo; conditions: lamstatin 10 or 100 μg/mL; CP17 5 or 50 μA; vs vehicle
Procedure: A mouse ear tumour plug model was utilized in which green fluorescent protein (GFP)-tagged lung adenocarcinoma cells (LNM35 AAV-GFP) were injected between the two layers of skin of the ears of NOD/SCID mice. 1×10^6 tumour cells were embedded in […] growth factor free Matrigel® medium enriched with vehicle (1 nM EDTA, pH3.0) or lamstatin at either 10 μg/mL or 100 μg/mL. Mice were divided into three groups.
Group 1 (n=9): One ear of each mouse injected with tumour cells+10 μg/mL lamstatin; the other ear injected with tumour cells+vehicle control. Group 2 (n=9): One ear of each mouse injected with tumour cells+100 μg/mL lamstatin; the other ear injected with tumour cells+vehicle control. Group 3 (n=3): Each ear injected with Matrigel® only.
Injections were single shots such that at least 25 μL was injected. 12 days after injection were sacrificed by anesthetisation and cervical dislocation. Ears were removed for whole mount staining. Flaps of skin from each ear were carefully separated, fixed and stained for either the lymphatic endothelial cell specific marker LyVe-1 (rabbit polyclonal anti-LyVe-1 antibody detected using anti-rabbit Alexafluor 647) or the vascular endothelial cell specific marker PECAM (CD31 rat anti-mouse antibody clone MEC13.3 (Pharmingen), detected with […]). Tumour cells were visualised by detection of GFP expression. Images of representative regions of ears were obtained using a confocal microscope and LyVe-1 or PECAM staining was quantified.
Using the LyVe-1 whole mount stained mouse ear sections, the inventors further investigated the morphology of lymphatic vessel formation. Specifically confocal images were loaded into Image J software (www.sbweb.nih.gov/ij/), a 5×5 grid overlayed and vessels examined for branching and looping. The functionality of a lymphatic network is based on its maturity and in general it is accepted that a tumour induces a rather immature network formation. Reconnecting vessels (measured as loops) and increased branching (measured as branches) are signs of immature vessels induced by, for example, a tumour (see for example Shayan et al. Growth Factors 25, 417-425, 2007).
Branches were defined as two clearly distinguishable vessels that separate out without rejoining. Loops were defined as small, circular vessel structures in the same focal plane. Branches or loops were counted separately per image and mean values were calculated for each treatment group.

HMVEC-LLy cells [2] = test: Tube formation on Matrigel; format: cell-based, human; conditions: 24 hrs, n=2
Procedure: To assess formation of tubular structures, 48 well plates were coated with 130 μL Matrigel® (BD Bioscience), which was solidified at 37° C. over 45 min. 2×10^4 HMVEC-LLy cells in complete EBM-2 (500 μL) were seeded per well and allowed to attach for 30 min, before lamstatin, tumstatin, CP17 or vehicle was added to the wells. Photos were taken with a Kodak Digital Camera every 2 hrs. Tube formation peaked at 24 hrs, at which time tubular structures were further analysed to determine length (in pixels) and number of tubes per high power field (HPF) area (px^2). The HPF was divided in nine regions of equal size and tubes per region were counted. Mean and SEM were calculated and plotted.

HMVEC-LLy cells [3] = test: Migration towards a VEGF-D gradient (FluoroBlok transwell); format: cell-based, human; conditions: 24 hrs
Procedure: FluoroBlok BioCoat 24-well inserts (BD Bioscience) were seeded with 4×10^4 HMVEC-LLy cells in 750 μL DMEM with 0.1% BSA, 1% antibiotics and 25 mM HEPES and incubated for 1 hr. The bottom well was filled with 500 μL medium (as described above) with or without 10 ng/mL VEGF-D (R&D Systems) as well as various concentrations of lamstatin, tumstatin, CP17 or vehicle. Additionally, top wells were loaded with inhibitors to match the bottom well concentration. According to manufacturer's instructions cells were allowed to migrate for 24 hrs before bottom media was removed. Thereafter the underside of the transwell with the migrated cells was washed twice with HANKS buffer and placed in a 4 μg/mL calcein (HANKS) solution for 90 min at 37° C. Signal was read with a bottom read fluorescence microplate reader at 485/515 nm (excitation/emission).

integrins α5 and β1 = target: T1, integrins α5 and β1 (Homo sapiens, UniProt P05556+P08648); test: Integrins mediating binding of lymphatic endothelial cells (data not shown); format: cell-based; conditions: HMVEC-LLy in vitro, different from HUVECs
T1 construct: endogenous in cells; host or cells: HMVEC-LLy (human primary lymphatic endothelial cells)

integrin β3 = target: T2, integrin β3 (Homo sapiens, UniProt P05106); test: Integrin binding of HMVEC-LLy cells on antibody-coated plates; format: cell-based; conditions: lamstatin 10 μg/ml, CP17 5 μM, 1 h
T2 construct: endogenous in cells; host or cells: HMVEC-LLy (human primary lymphatic endothelial cells)
T2 sequence (P05106 27-788): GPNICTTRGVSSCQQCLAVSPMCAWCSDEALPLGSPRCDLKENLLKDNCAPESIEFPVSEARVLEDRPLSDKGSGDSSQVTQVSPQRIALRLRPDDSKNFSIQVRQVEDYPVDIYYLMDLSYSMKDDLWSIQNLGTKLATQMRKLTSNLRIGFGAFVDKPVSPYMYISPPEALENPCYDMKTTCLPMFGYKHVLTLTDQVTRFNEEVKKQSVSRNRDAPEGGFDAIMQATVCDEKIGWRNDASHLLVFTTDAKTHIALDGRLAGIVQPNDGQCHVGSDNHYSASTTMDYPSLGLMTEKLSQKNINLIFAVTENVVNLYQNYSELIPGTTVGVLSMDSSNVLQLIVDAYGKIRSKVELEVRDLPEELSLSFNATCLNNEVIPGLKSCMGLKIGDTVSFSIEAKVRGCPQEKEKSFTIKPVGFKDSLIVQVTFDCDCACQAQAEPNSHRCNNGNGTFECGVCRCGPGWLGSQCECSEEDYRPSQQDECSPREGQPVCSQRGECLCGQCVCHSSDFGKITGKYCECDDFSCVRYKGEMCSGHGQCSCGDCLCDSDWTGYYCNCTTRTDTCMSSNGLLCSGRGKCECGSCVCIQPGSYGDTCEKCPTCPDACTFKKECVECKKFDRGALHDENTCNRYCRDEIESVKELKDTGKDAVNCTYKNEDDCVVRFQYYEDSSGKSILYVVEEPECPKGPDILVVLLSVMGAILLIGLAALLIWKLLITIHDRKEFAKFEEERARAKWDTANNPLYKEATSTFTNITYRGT
T2 sequence (P06756 31-889 limits assumed, further chain): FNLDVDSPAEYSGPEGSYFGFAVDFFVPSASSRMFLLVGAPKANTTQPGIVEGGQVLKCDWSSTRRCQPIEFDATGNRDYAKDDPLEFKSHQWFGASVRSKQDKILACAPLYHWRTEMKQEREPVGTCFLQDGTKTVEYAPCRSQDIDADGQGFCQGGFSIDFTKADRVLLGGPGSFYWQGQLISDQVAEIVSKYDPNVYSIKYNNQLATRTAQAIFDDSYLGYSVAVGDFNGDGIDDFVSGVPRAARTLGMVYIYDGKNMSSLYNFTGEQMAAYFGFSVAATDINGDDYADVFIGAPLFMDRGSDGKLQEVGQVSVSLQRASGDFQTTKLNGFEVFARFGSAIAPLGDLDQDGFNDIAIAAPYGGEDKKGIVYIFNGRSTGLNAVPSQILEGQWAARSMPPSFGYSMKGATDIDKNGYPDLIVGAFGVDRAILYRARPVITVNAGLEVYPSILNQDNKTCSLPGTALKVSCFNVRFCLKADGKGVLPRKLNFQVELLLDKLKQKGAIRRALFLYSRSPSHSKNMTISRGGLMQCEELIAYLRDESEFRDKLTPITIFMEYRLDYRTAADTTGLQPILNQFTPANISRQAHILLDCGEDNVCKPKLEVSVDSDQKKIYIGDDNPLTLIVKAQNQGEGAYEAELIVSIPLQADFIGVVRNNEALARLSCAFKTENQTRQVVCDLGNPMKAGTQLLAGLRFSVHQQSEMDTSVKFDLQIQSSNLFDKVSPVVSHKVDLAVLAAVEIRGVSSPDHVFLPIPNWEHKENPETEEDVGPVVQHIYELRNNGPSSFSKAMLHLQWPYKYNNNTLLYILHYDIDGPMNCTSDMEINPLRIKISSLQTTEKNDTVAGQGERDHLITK
T2 sequence (P06756 891-1048 limits assumed, further chain): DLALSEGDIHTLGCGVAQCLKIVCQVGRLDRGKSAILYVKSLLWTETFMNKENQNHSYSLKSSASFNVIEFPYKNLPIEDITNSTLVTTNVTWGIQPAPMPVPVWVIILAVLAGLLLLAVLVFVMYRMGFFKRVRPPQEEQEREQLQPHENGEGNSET
Procedure: (§1) Antibodies for integrin α5 (MAB1956Z; MAB1953Z), integrin β1 (MAB2253Z) and integrin β3 (MAB1957Z) (all Millipore, USA) were coated to 96 well tissue culture plates (Nunc, USA) at a concentration of 10 μg/mL overnight at 4° C. in sterile coating buffer (50 mM Na2CO3, 50 mM NaHCO3, pH 9.6). Plates then were blocked with sterile 1% BSA/PBS for 1 h at 37° C. and washed twice with EBM-2 MV (Lonza, Basel, Switzerland). MMVEC-LLy cells were carefully removed from culture flasks with non-enzymatic detachment solution (Trevigen, Md., USA) and washed twice with EBM-2 (Lonza, Basel, Switzerland). Volume was adjusted to a cell concentration of 50,000 cells/100 μL and divided into aliquots for treatment with recombinant lamstatin (10 μg/ml), CP17 (5 μM) or vehicle (1 nM EDTA, pH 3.5) only. Cells were then transferred to the antibody-coated plates and incubated for 1 h at 37° C. Wells were then washed with HANKS twice to remove unbound cells and fixed with 4% paraformaldehyde (in PBS) for 15 min at room temperature. Wells thereafter were photographed with an Olypmus CAMEDIA C-4000 camera mounted to an Olympus CK2 microscope. Pictures were divided into 25 segments and cells of 5 center-near quadrants were counted and averaged. […] Using a similar approach, the inventors observed no expression of integrin α4 on the surface of HMVEC-LLy cells (data not shown).

integrin β1 = target: T3, integrin β1 (Homo sapiens, UniProt P05556+P08648); test: as above; format: cell-based; conditions: lamstatin 10 μg/ml, CP17 5 μM, 1 h
T3 construct: endogenous in cells; host or cells: HMVEC-LLy (human primary lymphatic endothelial cells)
T3 sequence (P05556 21-798): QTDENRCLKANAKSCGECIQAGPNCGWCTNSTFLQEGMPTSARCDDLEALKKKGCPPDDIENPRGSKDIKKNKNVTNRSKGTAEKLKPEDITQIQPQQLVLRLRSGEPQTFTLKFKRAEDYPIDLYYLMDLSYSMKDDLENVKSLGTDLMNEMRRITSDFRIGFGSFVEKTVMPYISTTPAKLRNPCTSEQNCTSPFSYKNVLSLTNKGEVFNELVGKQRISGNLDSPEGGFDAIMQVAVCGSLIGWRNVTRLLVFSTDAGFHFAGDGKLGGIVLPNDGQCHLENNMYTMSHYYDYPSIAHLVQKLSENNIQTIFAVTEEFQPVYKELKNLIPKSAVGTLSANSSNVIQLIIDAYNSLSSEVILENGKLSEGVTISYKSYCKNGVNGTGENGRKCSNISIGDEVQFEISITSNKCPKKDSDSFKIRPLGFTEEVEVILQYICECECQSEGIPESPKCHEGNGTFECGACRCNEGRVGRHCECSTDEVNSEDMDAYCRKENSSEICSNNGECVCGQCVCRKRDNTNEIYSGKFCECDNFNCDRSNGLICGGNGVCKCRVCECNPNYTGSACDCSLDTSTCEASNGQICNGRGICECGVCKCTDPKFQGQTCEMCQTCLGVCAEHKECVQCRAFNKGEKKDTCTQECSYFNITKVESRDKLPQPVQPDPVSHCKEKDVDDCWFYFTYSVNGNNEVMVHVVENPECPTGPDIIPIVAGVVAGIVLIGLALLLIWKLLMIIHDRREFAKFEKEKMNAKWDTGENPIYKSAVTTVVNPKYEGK
T3 sequence (P08648 42-894 limits assumed): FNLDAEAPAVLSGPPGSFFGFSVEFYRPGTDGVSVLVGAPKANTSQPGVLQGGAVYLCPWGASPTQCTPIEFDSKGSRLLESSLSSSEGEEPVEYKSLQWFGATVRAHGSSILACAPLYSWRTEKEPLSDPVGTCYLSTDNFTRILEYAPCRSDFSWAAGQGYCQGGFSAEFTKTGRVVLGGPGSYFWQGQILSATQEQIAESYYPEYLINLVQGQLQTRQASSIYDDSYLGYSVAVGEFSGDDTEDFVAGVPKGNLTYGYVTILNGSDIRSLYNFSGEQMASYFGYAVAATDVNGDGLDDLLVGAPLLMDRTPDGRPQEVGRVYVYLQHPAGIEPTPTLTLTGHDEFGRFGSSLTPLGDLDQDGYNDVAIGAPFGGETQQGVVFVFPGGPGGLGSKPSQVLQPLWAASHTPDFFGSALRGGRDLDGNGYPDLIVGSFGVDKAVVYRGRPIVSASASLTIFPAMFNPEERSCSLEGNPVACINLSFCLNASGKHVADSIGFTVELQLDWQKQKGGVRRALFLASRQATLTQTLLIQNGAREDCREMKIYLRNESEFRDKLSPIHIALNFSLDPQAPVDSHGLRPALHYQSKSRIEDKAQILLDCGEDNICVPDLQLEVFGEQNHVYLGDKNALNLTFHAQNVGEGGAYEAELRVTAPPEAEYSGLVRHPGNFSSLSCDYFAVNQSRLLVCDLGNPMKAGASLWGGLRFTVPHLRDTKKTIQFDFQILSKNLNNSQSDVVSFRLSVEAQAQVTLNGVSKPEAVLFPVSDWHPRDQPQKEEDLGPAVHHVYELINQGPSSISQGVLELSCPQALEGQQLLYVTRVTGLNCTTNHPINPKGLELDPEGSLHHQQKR
T3 sequence (P08648 895-1049 limits assumed): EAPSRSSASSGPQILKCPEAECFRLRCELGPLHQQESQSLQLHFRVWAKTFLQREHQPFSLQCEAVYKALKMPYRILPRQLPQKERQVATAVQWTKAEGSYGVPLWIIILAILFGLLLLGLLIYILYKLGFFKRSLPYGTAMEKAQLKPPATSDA
Procedure: as §1

integrin α5 = target: T4, integrin α5 (Homo sapiens, UniProt P05556+P08648); test: as above; format: cell-based; conditions: lamstatin 10 μg/ml, CP17 5 μM, 1 h
T4 construct: endogenous in cells; host or cells: HMVEC-LLy (human primary lymphatic endothelial cells)
T4 sequence (P08648 42-894 limits assumed): as the sequence (P08648 42-894 limits assumed) above
T4 sequence (P08648 895-1049 limits assumed): as the sequence (P08648 895-1049 limits assumed) above
T4 sequence (P05556 21-798): as the sequence (P05556 21-798) above
Procedure: as §1

LAM nodule cells = test: MTT cell viability assay, LAM nodule cells; format: cell-based; conditions: intermediate layer, centre and outer nodule cells, 72 hrs
Procedure: (§2) To determine the function of lamstatin, human primary lymphatic endothelial cells (HMVEC-LLy cells) were exposed to various concentrations of lamstatin and an MTT assay was performed. As a comparison, commercially available tumstatin was used. Specifically, to assess cell viability 4×10^3 HMVEC-LLy cells were seeded per well in 100 μl complete EBM-2 media (with bullet kit, Lonza) and incubated for 2 hrs at 37° C., 5% CO2. After this period lamstatin, tumstatin and respective vehicles (1 nM EDTA, pH 3.0) were prepared in complete EBM-2 as serial dilutions in a separate plate and added. Cells were grown for 24 hrs before MTT (1 mg/mL in PBS) was added. After 6 h of further incubation cells were lysed overnight with 10% SDS/0.01 M HCl and measured the following day in a plate reader at 570 nm.
The inventors isolated lung cells from a LAM patient, which cells originated from the LAM nodules. These cells were termed according to their location within the nodule, as intermediate layer in the nodule, centre cells and outer nodule cells. These cells were then treated with lamstatin or tumstatin and cell viability measured after 72 hrs. The MTT viability assay was performed as described above in Example 1.

[4] = test system: human primary lymphatic endothelial cells (HMVEC-LLy cells); test: MTT cell viability assay, lymphatic endothelial cells; format: cell-based; conditions: 24 hrs, data not shown
Procedure: as §2, with “Cells were grown for 24 hrs before MTT (1 mg/mL in PBS) was added.” left out
The MTT assay was performed as described above.

migration of HMVEC-LLy towards a VEGFD gradient after 24 hrs (RFU) (VEGF-D (R&D Systems)): < 15000 RFU
Molecule: VEGFD specific blocking fusion receptor (R3-FC) (Fc fusion)

Molecule: VCNFASRNDYSYWLSTP (listed as Homo sapiens) [CP17]
number of branches of lymphatic vessels [1]: significantly reduced
number of loops of lymphatic vessels [1]: significantly reduced
numbers of tube-like structures formed (HMVEC-LLy cells [2]): reduce in a concentration related manner
migration towards a VEGFD gradient (HMVEC-LLy cells [3]; n=1, VEGFD alone 42.000 RFU): the same effect was not observed
predominant integrins that mediate the binding of lymphatic endothelial cells (integrins α5 and β1): integrins α5 and β1
cell binding in presence of monoclonal antibody against integrin β3 (integrin β3): no effect on binding
cell binding in presence of monoclonal antibody against integrin β1 (integrin β1): significantly inhibited cell binding
cell binding in presence of monoclonal antibody against integrin α5 (integrin α5): significantly inhibited cell binding

B1: VEGFD: growth factor (R&D Systems) used as chemoattractant gradient for lymphatic endothelial cells (protein)
chain: FYDIETLKVIDEEWQRTQCSPRETCVEVASELGKSTNTFFKPPCVNVFRCGGCCNEESLICMNTSTSYISKQLFEISVPLTSVPELVPVKVANHTGCKCLPTAPRHPYS
migration of lymphatic endothelial cells towards VEGFD (HMVEC-LLy cells [3]; increasing concentrations of VEGFD): attract lymphatic endothelial cells in a concentration related manner

predominant integrins that mediate the binding of lymphatic endothelial cells (integrins α5 and β1): integrins α5 and β1
B2: tumstatin: NC1 domain of the α3 chain of collagen type IV; human sequence SEQ ID NO:3; commercially available tumstatin was used (protein, listed as Homo sapiens)
chain: GFVFTRHSQTTAIPSCPEGTVPLYSGFSFLFVQGNQRAHGQDLGTLGSCLQRFTTMPFLFCNVNDVCNFASRNDYSYWLSTPALMPMNMAPITGRALEPYISRCTVCEGPAIAIAVHSQTTDIPPCPHGWISLWKGFSFIMFTSAGSEGTGQALASPGSCLEEFRASPFLECHGRGTCNYYSNSYSFWLASLNPERMFRKPIPSTVKAGELEKIISRCQVCMKKRH
reduction of cell viability (MTT) (LAM nodule cells): effective in reducing cell viability at higher concentrations
cell viability (MTT) [4]: lamstatin only
numbers of tube-like structures formed (HMVEC-LLy cells [2]): reduce in a concentration related manner
